The values below come from publication PMC3752404 (Molecular cell, 2011).

Values joined by “and” are separate entries in the source; they are usually repeats but may differ in a detail not shown here. Identical values can stand only once.

Data set [1] addresses Swi6 chromoshadow domain (WT CSD) (S. pombe). Nature of the data set: ITC.
Data set [2] has the same target.
Data set [3] has as its target MLA methylated (H3Kc9me3) mononucleosome on the 147 bp 601 sequence. Nature of the data set: AUC.
Data set [4] concerns the target H3Kc9me3 12N(L15) nucleosome array. Kind of data set: native gel or EMSA.
In data set [5] the target is H3Kc9me3 2N(L47) dinucleosome. Kind of data set: native gel or EMSA.
The target of data set [6] is MLA methylated (H3Kc9me3) mononucleosome on the 147 bp 601 sequence. Nature of the data set: native gel or EMSA.
Data set [7] addresses H3Kc9me3 2N(L15) dinucleosome. Nature of the data set: native gel or EMSA.
Data set [8] addresses H3Kc9me3 12N(L47) nucleosome array. Nature of the data set: native gel or EMSA.
In data set [9] the target is H3K9 2N(L47) dinucleosome. Nature of the data set: native gel or EMSA.
The target of data set [10] is H3K9 2N(L15) dinucleosome. Nature of the data set: native gel or EMSA.
Data set [11] addresses Swi6 (wild type, tagged: N-terminal 6xHis and C-terminal FLAG) (S. pombe) (UniProt P40381). Nature of the data set: equilibrium competition with a fluorescently labeled DNA.
The data set “SEC-MALS” concerns the molecule itself. Kind of data set: SEC-MALS.
For a further data set, the target named is H3K9me3 tail peptide. Kind of data set: fluorescence polarisation.
The data set “SEC-MALS + cross-linking” concerns the molecule itself. Nature of the data set: SEC-MALS + cross-linking.
The data set “cross-linking” concerns the molecule itself. Nature of the data set: cross-linking.
The data set “SEC” deals with the molecule itself. Kind of data set: SEC.

In [1], “Swi6 chromoshadow domain (WT CSD) (domain or fragment)” yielded a Kd of less than 17 nM. This molecule also displayed a stoichiometry N in data set [2] of 2.
“Swi6 L315D (from UniProt P40381 1-328) (natural protein)” showed a stoichiometry N in data set [3] of 2. In addition, the fold discrimination between methylated and unmethylated arrays in data set [4] was in the range of 2 to 3 fold.
As to “Swi6 (wild type, tagged: N-terminal 6xHis and C-terminal FLAG) (from UniProt P40381 1-328) (natural protein)”, the stoichiometry N in data set [3] worked out at 4. Also, the K1/2 came out at 12 nM in data set [5], 62 nM in data set [7], 32 nM in [9] and 156 nM in [10]. Further, the fold preference over H3K9 nucleosomes (ratio of K1/2) in data set [6] is 5 fold. In addition, the fold specificity over the H3K9 12N(L47) array (ratio of K1/2) in data set [8] worked out at 5.4 fold. In [4], the fold specificity over the H3K9 12N(L15) array (ratio of K1/2) is 25 fold.
“Swi6 (wild type, untagged) (from UniProt P40381 1-328) (natural protein)” displayed a fold increase of affinity on removing the tags with nucleosomes and arrays of 2.5 fold.
“MLA methylated (H3Kc9me3) mononucleosome on the 147 bp 601 sequence (complex)”: the fold specificity over H3K9 nucleosomes in data set [11] came out at 5 fold.
In data set [4], “Swi6 V82E-Y131W (from UniProt P40381 1-328) (natural protein)” registered a fold increase of specificity compared to WT Swi6 of 7 fold and a fold specificity over the H3K9 12N(L15) array of 130 fold.

B1: Swi6 V82E (natural protein, S. pombe, UniProt P40381 1-328, looked up)
chain: MKKGGVRSYRRSSTSKRSVIDDDSEPELPSMTKEAIASHKADSGSSDNEVESDHESKSSSKKLKENAKEEEGGEEEEEDEYEVEKVLKHRMARKGGGYEYLLKWEGYDDPSDNTWSSEADCSGCKQLIEAYWNEHGGRPEPSKRKRTARPKKPEAKEPSPKSRKTDEDKHDKDSNEKIEDVNEKTIKFADKSQEEFNENGPPSGQPNGHIESDNESKSPSQKESNESEDIQIAETPSNVTPKKKPSPEVPKLPDNRELTVKQVENYDSWEDLVSSIDTIERKDDGTLEIYLTWKNGAISHHPSTITNKKCPQKMLQFYESHLTFRENE
Consider B1, for which the binding result in the data set “SEC-MALS” is “binds”. This molecule also showed a fold increase of binding with H3K9me3 tail peptide of 3 fold.

B2: Swi6 (wild type, tagged: N-terminal 6xHis and C-terminal FLAG) (natural protein, S. pombe, UniProt P40381 1-328, looked up)
chain: MKKGGVRSYRRSSTSKRSVIDDDSEPELPSMTKEAIASHKADSGSSDNEVESDHESKSSSKKLKENAKEEEGGEEEEEDEYVVEKVLKHRMARKGGGYEYLLKWEGYDDPSDNTWSSEADCSGCKQLIEAYWNEHGGRPEPSKRKRTARPKKPEAKEPSPKSRKTDEDKHDKDSNEKIEDVNEKTIKFADKSQEEFNENGPPSGQPNGHIESDNESKSPSQKESNESEDIQIAETPSNVTPKKKPSPEVPKLPDNRELTVKQVENYDSWEDLVSSIDTIERKDDGTLEIYLTWKNGAISHHPSTITNKKCPQKMLQFYESHLTFRENE
Consider B2, for which the “stoichiometry N” value is 8 in the data set “SEC-MALS + cross-linking”; 2 and > 2 in the data set “cross-linking”.

B3: Swi6 Y131W (natural protein, S. pombe, UniProt P40381 1-328, looked up)
chain: MKKGGVRSYRRSSTSKRSVIDDDSEPELPSMTKEAIASHKADSGSSDNEVESDHESKSSSKKLKENAKEEEGGEEEEEDEYVVEKVLKHRMARKGGGYEYLLKWEGYDDPSDNTWSSEADCSGCKQLIEAWWNEHGGRPEPSKRKRTARPKKPEAKEPSPKSRKTDEDKHDKDSNEKIEDVNEKTIKFADKSQEEFNENGPPSGQPNGHIESDNESKSPSQKESNESEDIQIAETPSNVTPKKKPSPEVPKLPDNRELTVKQVENYDSWEDLVSSIDTIERKDDGTLEIYLTWKNGAISHHPSTITNKKCPQKMLQFYESHLTFRENE
On to B3, for which, in “SEC-MALS”, the “fold tetramer formation over WT” value is roughly 1.6 fold.

B4: Swi6 V82E-Y131W (natural protein, S. pombe, UniProt P40381 1-328, looked up)
chain: MKKGGVRSYRRSSTSKRSVIDDDSEPELPSMTKEAIASHKADSGSSDNEVESDHESKSSSKKLKENAKEEEGGEEEEEDEYEVEKVLKHRMARKGGGYEYLLKWEGYDDPSDNTWSSEADCSGCKQLIEAWWNEHGGRPEPSKRKRTARPKKPEAKEPSPKSRKTDEDKHDKDSNEKIEDVNEKTIKFADKSQEEFNENGPPSGQPNGHIESDNESKSPSQKESNESEDIQIAETPSNVTPKKKPSPEVPKLPDNRELTVKQVENYDSWEDLVSSIDTIERKDDGTLEIYLTWKNGAISHHPSTITNKKCPQKMLQFYESHLTFRENE
For B4, in “SEC-MALS”, the “fold tetramer formation over WT” value was roughly 3.5 fold; the “stoichiometry N” value is 4 and 8.

B5: Swi6 chromodomain (CD, aa 81-137) (domain or fragment, S. pombe, UniProt P40381 81-137, looked up)
chain: YVVEKVLKHRMARKGGGYEYLLKWEGYDDPSDNTWSSEADCSGCKQLIEAYWNEHGG
As to B5, the “stoichiometry N” value in “SEC” stood at 2.
